Laboratory results taken from the supplement of paper PMC12042874.
± gives the uncertainty stated by the source.

Assay: amyloid nucleation score (Sup35N fusion, yeast selection) (log enrichment); library NNK2; higher = more nucleation; inactive = no reads after selection
How it was run: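 Plasmid inserts were Illumina-sequenced at input and output from psi-negative yeast expressing Sup35N fused to peptides of 20 random codons. The yeast were induced with 100 μM copper sulfate for 24 hours and grown 7 days at 30°C on medium lacking adenine and uracil, and sequences with under 100 input reads were excluded. Nucleation score is the DiMSum log enrichment of output over input reads, centred on the mode score of non-aggregating sequences.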

Substance	amyloid nucleation score
CVKQWRTIIVTLYLGTLPK	4.21 ± 0.059
CVLDLNVMDGGLL	-1.26 ± 0.38
CVLDNGGTYNFRLRRMDHLI	-0.707 ± 0.79
CVLVFIVNKTYA	4.13 ± 0.06
CVLYCVGFN	6.483 ± 0.042
CVMALVYACRAAHTRPMAYS	inactive
CVMLMCRGDV	3.87 ± 0.091
CVMMSQAFF	5.22 ± 0.084
CVSADPFCPIEQFNVMILAL	-0.663 ± 0.42
CVSEDDCLDYPKV	2.29 ± 0.13
CVVDLDPCNGDAGLSSYTIS	0.594 ± 0.13
CWLAMN	-0.166 ± 0.8
CWNKEGRFTRVTMEHASRRA	0.973 ± 0.48
CWRVNRFYVQSSYMGFVWSV	-0.73 ± 1.1
CYHFCYYVLSLVWGQNPVIK	0.108 ± 0.65
CYSTLGLSG	0.516 ± 0.81
DAEIMMCYCKFSGFGSITWR	0.143 ± 0.5
DAKPVCIDGLFI	-0.839 ± 0.56
DAVMVWVGDV	0.179 ± 0.17
DAVRQGTL	0.102 ± 1.1
DAWFVINHHPIEYLSLRVWR	0.98 ± 0.27
DAWKLNTDIYSANRYFIDLV	-0.651 ± 0.27

Substance	amyloid nucleation score
DAWSCRRLF	inactive
DCECGLNSWKKVT	inactive
DCLFLKVSPLVHQYYWIGFD	0.306 ± 0.8
DCLNYFTTLIKLVSLVCWNG	-0.571 ± 0.79
DCLYRLSIKSSKAMVSHECR	-0.142 ± 0.79
DCTLAVLFYKTEFITPRAQW	2.28 ± 0.14
DDCCSVNAMHSANCMMVVR	0.09 ± 1
DDDNRNNLLWAMNADLGLRC	2.32 ± 0.091
DDDRPDEAYEYDVSGF	-1.03 ± 0.54
DDFGCLYFYILYS	inactive
DDNVLYCYSYVVHESLSAAQ	0.354 ± 0.3
DDSFML	-0.134 ± 1.1
DEIVSERDIVSSNRLCGSIM	-0.561 ± 1.1
DFCSLATYGKRGFCDMYYYV	0.343 ± 0.35
DFDSQRSLKSSDRRFVTFTY	-0.869 ± 0.55
DFGRWSTSGSVPCSGATCAV	2.43 ± 0.2
DFILGYVDS	-0.65 ± 1
DFLWTFVGNFLE	-1.43 ± 0.78
DFNIIECSPGRGVHHDDWEP	inactive
DFSTLAPLKLVMHI	-0.267 ± 0.54
DFVRY	-0.484 ± 0.63
DFYVSVPLRNCFSMSFIKWV	-0.766 ± 0.48

Substance	amyloid nucleation score
DGFVVASISWGSNFLVFFIY	inactive
DGMSRSVRKNCEAGCRRSFG	4.58 ± 0.048
DGNWL	-0.385 ± 0.76
DGRADFYSCVCLYYSWNGY	3.62 ± 0.037
DGRIVYEPSKSARFWKVKCL	-0.335 ± 0.79
DGSHYFIVRDPVNSCLSSWV	-0.668 ± 0.36
DGVCKFQELMSFPGKLYS	-0.447 ± 0.5
DGVNAFNR	0.203 ± 0.2
DHLYMYWGAQ	1.02 ± 0.37
DHRLYQSFKALRVPSVVLRG	-0.766 ± 0.79
DHRRCDSMRTDC	0.098 ± 1
DIAKLLCYILCFNGKSRRWG	0.127 ± 0.55
DIARDLVWGLRSNAGAQLGN	0.54 ± 0.44
DICNWHLYDNCLSICSGYR	0.951 ± 0.81
DIGSMYEMLCRVVTIVLPRS	-0.723 ± 1.1
DIIAPEKNFIIYY	inactive
DIIVVQCIVSVMCTMRASRS	5.897 ± 0.051
DIRMLERTNLIPYNKQVMGM	0.163 ± 0.29
DISELDVCFL	-0.287 ± 0.33
DITYEYTTWGFLRRQAIRRP	3.63 ± 0.089
DITYQHDGVIE	-0.789 ± 0.32
DIVIYWV	-0.139 ± 0.63

Substance	amyloid nucleation score
DIVQIWCWFRGC	10.25 ± 0.029
DKCDMTSTIVSLLVSTPKWS	-0.142 ± 0.34
DKICNYVVGGEVYFSMNHYW	8.327 ± 0.047
DKIRTSKAISQIWLLPIYFE	0.491 ± 0.57
DKPLQWHGCVRKKSTRGRGW	0.927 ± 0.45
DKREQRLRQSQILMCGDGGF	0.157 ± 0.76
DKRIGRVCHSLKIVWCTIML	-0.089 ± 0.41
DKRLCLMVCNLLVYYMPF	-0.952 ± 0.63
DLAELISVKYLVTVSLWAGS	0.621 ± 0.57
DLARPDFKLIYSYGSNSPGS	-1.38 ± 0.64
DLEYF	-1.56 ± 0.54
DLFGCFVNCRSRL	2.89 ± 0.092
DLGYDLTINWAFERLADRVN	-1.46 ± 1
DLIGPYRVLRFCRWV	2.8 ± 0.099
DLIYGGYST	inactive
DLRYTMYYDCFCYVFCPSMT	8.166 ± 0.059
DLSSALRAMRSYSHLSTVGI	inactive
DLVHFLRNRWCGIR	-0.73 ± 0.55
DLVVYLSPVGGTGRFYEVGA	3.92 ± 0.062
DMHCFSEGRHGGLTCAGCLR	1.1 ± 0.19
